Test [1] addresses T1, human TIM-3 expressed on cells (human, UniProt Q8TDQ0 22-301).
T1 construct: also called huTIM-3; hTIM-3
Description: flow cytometry on cells expressing human TIM-3.

For test [2], the target named is T2, huTIM-3/his (human, UniProt Q8TDQ0 22-202).
T2 construct: also called hTIM-3/his antigen
The test is described as follows: Biacore, 2nd antibody injection; 1st antibody (competitor) ABTIM3-hum21.

The target in test [3] is T1, human TIM-3 expressed on cells. The test is described as follows: flow cytometry competition on 300.19 hTIM-3 cells against PE-labelled ABTIM3-hum21.
Test [4] concerns the target T3, TIM-3 (antigen; species and construct not stated for the assay) (UniProt Q8TDQ0 22-202, limits assumed). Description: SPR (Biacore), run of May 1, 2014.
Test [5] has as its target T3, TIM-3 (antigen; species and construct …). Description: SPR (Biacore), run of May 30, 2014.
Test [6] shares this target. Description: SPR (Biacore), run of Apr. 29, 2014.
For test [7], the target named is T2, huTIM-3/his. The test is described as follows: SPR (Biacore), run 1.
In test [8] the target is T4, cynoTIM-3/Fc (cynomolgus monkey, UniProt A0A2K5U3G7 22-195).
T4 sequence: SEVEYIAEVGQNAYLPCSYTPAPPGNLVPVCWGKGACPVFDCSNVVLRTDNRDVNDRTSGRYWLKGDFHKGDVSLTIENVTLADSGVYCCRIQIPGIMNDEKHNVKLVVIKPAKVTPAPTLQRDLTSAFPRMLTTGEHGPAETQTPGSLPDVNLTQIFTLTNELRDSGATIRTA
Description: SPR (Biacore), run 1.

Test [9] addresses T2, huTIM-3/his. Description: SPR (Biacore), run 2.
The target of test [10] is T4, cynoTIM-3/Fc. The test is described as follows: SPR (Biacore), run 2.
Test [11] deals with T2, huTIM-3/his. Description: SPR (Biacore), run 3.
In test [12] the target is T4, cynoTIM-3/Fc. The test is described as follows: SPR (Biacore), run 3.
Test [13] deals with T5, ratTIM-3/Fc (rat, UniProt P0C0K5 22-194, limits assumed).
T5 construct: also called rat TIM-3/Fc protein
T5 sequence (looked up): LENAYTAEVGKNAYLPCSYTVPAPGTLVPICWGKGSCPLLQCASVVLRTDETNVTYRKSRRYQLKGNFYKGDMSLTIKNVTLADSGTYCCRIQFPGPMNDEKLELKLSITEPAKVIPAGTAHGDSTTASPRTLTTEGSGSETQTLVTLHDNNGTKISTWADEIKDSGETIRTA
The test is described as follows: SPR (Biacore), run 3.

For test [14], the target named is T2, huTIM-3/his. Description: SPR (Biacore), mean KD.
Test [15] has as its target T4, cynoTIM-3/Fc. Description: SPR (Biacore), mean KD.
Test [16] deals with T2, huTIM-3/his. The test is described as follows: Biacore, 2nd antibody injection; 1st antibody (competitor) huIgG1.
Test [17] concerns the target T2, huTIM-3/his. Description: Biacore, 2nd antibody injection; 1st antibody (competitor) ABTIM3-hum03.
The target of test [18] is T1, human TIM-3 expressed on cells. The test is described as follows: flow cytometry, 300.19 huTIM3 cells, detected by secondary Ab-FITC.
The target is the same in test [19]. The test is described as follows: flow cytometry competition on 300.19 hTIM3 cells in presence of ABTIM3; signal is MFI of 0.51ug/ml 22C1-PE.
For test [20], the target named is T3, TIM-3 (antigen; species and construct …). Description: SPR (Biacore), run of Apr. 7, 2014.
Test [21] shares this target. Description: FACS competition binding against the parent murine ABTIM3; cells not named on the sheet.
In test [22] the target is T5, ratTIM-3/Fc. The test is described as follows: SPR (Biacore), run 2.
Test [23] addresses T4, cynoTIM-3/Fc. Description: SPR (Biacore), run 1; run 1 of three; cynoTIM-3/Fc.

Residue numbers refer to the chain shown, from its start. Where “and” joins values, the source holds several entries; their conditions need not be identical. Equal entries are not always repeated.

B1: ABTIM3-hum21 (antibody, human IgG1, kappa)
heavy: not shown
light: DIVLTQSPDSLAVSLGERATINCRASESVEYYGTSLMQWYQQKPGQPPKLLIYAASNVESGVPDRFSGSGSGTDFTLTISSLQAEDVAVYYCQQSRKDPSTFGGGTKVEIKRTVAAPSVFIFPPSDEQLKSGTASVVCLLNNFYPREAKVQWKVDNALQSGNSQESVTEQDSKDSTYSLSSTLTLSKADYEKHKVYACEVTHQGLSSPVTKSFNRGEC
notes: Humanized
For the molecule B1, in test [1], the affinity, expressed as Kd, was 917 pM. The “change in RU” value in the test with huTIM-3/his [2] was 6.6 RU. Also, the “IC50 (read off the curve)” value in test [3] is roughly 0.4 µg/mL.

B2: ABTIM3-hum02 (antibody, human IgG4 S228P, kappa, V domains shown)
VH: QVQLVQSGAEVKKPGASVKVSCKASGYTFTSYNMHWVRQAPGQGLEWIGDIYPGSGDTSYNQKFKGRATMTADKSTSTVYMELSSLRSEDTAVYYCARVGGAFPMDYWGQGTLVTVSS
VL: DIVLTQSPDSLAVSLGERATINCRASESVEYYGTSLMQWYQQKPGQPPKLLIYAASNVESGVPDRFSGSGSGTDFTLTISSLQAEDVAVYYCQQSRKDPSTFGGGTKVEIKR
notes: Humanized
On to B2, for which the figures for the Kd in test [4], in test [5] and in [6] were 269 pM, 174 pM and 308 pM, respectively.

B3: ABTIM3-hum09 (antibody, human IgG4 S228P, kappa, V domains shown)
VH: B2 VH with A16S, I48M, S55N, A68V, M70I, L113T
VL: EIVLTQSPATLSLSPGERATLSCRASESVEYYGTSLMQWYQQKPGQAPRLLIYAASNVESGIPARFSGSGSGTDFTLTISSLEPEDIAVYFCQQSRKDPSTFGGGTKVEIKR
notes: Humanized
With B3, the Kd in test [5] worked out at 161 pM. In other words, the sub-nanomolar range.

B4: ABTIM3-hum11 (antibody, human IgG4 S228P, kappa, V domains shown)
VH: B2 VH with A16S, I48M, S55N, A68V, M70I, L113T
VL: AIQLTQSPSSLSASVGDRVTITCRASESVEYYGTSLMQWYQQKPGKAPKLLIYAASNVESGVPSRFSGSGSGTDFTLTISSLQPEDFATYFCQQSRKDPSTFGGGTKVEIKR
notes: Humanized; Immobilized on Protein G beads and cross-linked with DSS in the HDx-MS experiment
Turning to B4, the Kd with huTIM-3/his [7] amounted to 155 pM; with cynoTIM-3/Fc [8] it was 1240 pM; with huTIM-3/his [9], 226 pM; with cynoTIM-3/Fc [10] it was 3140 pM; with huTIM-3/his [11], 109 pM; in the test with cynoTIM-3/Fc [12], 5040 pM. Further, the Kd in the test with ratTIM-3/Fc [13] was found to be 297000 pM; with huTIM-3/his [14], 163 pM; in the test with cynoTIM-3/Fc [15] it was 3140 pM; in test [5], 194 pM; in test [1], 906 pM. For the same molecule, the “change in RU” value with huTIM-3/his [16] was found to be 83.2 RU; with huTIM-3/his [17], 8.5 RU; in the test with huTIM-3/his [2], 8.1 RU. The “EC50 (read off the curve)” value in [18] is roughly 0.1 µg/mL. For the same molecule, the “IC50 (read off the curve)” value in test [3] was roughly 0.4 µg/mL; in test [19], roughly 0.2 µg/mL.

B5: ABTIM3-hum07 (antibody, human IgG4 S228P, kappa, V domains shown)
VH: B2 VH with V37I, S55N, M70L
VL: B2 VL
notes: Humanized
As for B5, the values for the Kd in [4], in [20] and in test [5] were 199 pM, 135 pM and 196 pM, respectively. In addition, the “IC50 (read off the curve)” value in [21] is roughly 0.2 µg/mL.

B6: ABTIM3-hum04 (antibody, human IgG4 S228P, kappa, V domains shown)
VH: B2 VH with V37I, S55N, M70L
VL: B2 VL with Y91F
notes: Humanized
For the molecule B6, the Kd in test [20] worked out at 216 pM; in test [5] it was 172 pM. Also, in test [21], the “IC50 (read off the curve)” value is roughly 0.2 µg/mL.

B7: ABTIM3-hum08 (antibody, human IgG4 S228P, kappa, V domains shown)
VH: B2 VH with S55N
VL: B2 VL with Y91F
notes: Humanized
Consider B7, for which the results for the Kd in [4], in test [20] and in [5] were 309 pM, 123 pM and 175 pM, respectively. In [21], the “IC50 (read off the curve)” value is roughly 0.2 µg/mL.

B8: ABTIM3-hum05 (antibody, human IgG4 S228P, kappa, V domains shown)
VH: B2 VH with V37I, M70L
VL: B2 VL with Y91F
notes: Humanized
Turning to B8, the Kd in [4] stood at 279 pM; in test [5], 332 pM; in test [6], 313 pM.

B9: ABTIM3-hum06 (antibody, human IgG4 S228P, kappa, V domains shown)
VH: B2 VH with V37I, S55Q, M70L
VL: B2 VL with Y91F
notes: Humanized
With B9, the Kd in [4] was 214 pM; in test [5], 364 pM; in test [6], 498 pM.

B10: ABTIM3-hum01 (antibody, human IgG4 S228P, kappa, V domains shown)
VH: B2 VH with S55N
VL: B2 VL
notes: Humanized
Regarding B10, the Kd was 114 pM in [4]; 103 pM in test [20]; 230 pM and 193 pM in test [5]. Besides, in test [21], the “IC50 (read off the curve)” value was roughly 0.2 µg/mL.

B11: ABTIM3-hum03 (antibody, human IgG4 S228P, kappa)
heavy: not shown
light: B1 light
notes: as for B4
On to B11, for which the Kd in the test with cynoTIM-3/Fc [10] came to 3890 pM; in the test with ratTIM-3/Fc [22], 51000 pM; with cynoTIM-3/Fc [12] it was 3080 pM; with cynoTIM-3/Fc [15], 2670 pM; with cynoTIM-3/Fc [23], 1040 pM.

B12: ABTIM3-hum10 (antibody, human IgG4 S228P, kappa, V domains shown)
VH: EVQLVQSGAEVKKPGESLKISCKGSGYTFTSYNMHWVRQMPGKGLEWMGDIYPGNGDTSYNQKFKGQVTISADKSISTVYLQWSSLKASDTAMYYCARVGGAFPMDYWGQGTTVTVSS
VL: B3 VL
notes: Humanized
In test [5], B12 came in with a Kd of 107 pM.

B13: ABTIM3-hum12 (antibody, human IgG4 S228P, kappa, V domains shown)
VH: B12 VH
VL: B4 VL
notes: Humanized
Turning to B13, the Kd in test [5] was 355 pM.

For the origin of these results see patent US20250213684A1 (Novartis, published 2025).
